From PMC12442378, “SmsB-SmsC machinery in Thermococcus kodakarensis functions as an archaeal scaffold mediating Fe-S cluster assembly” (Applied and Environmental Microbiology, 2025)
One block for each binder: values may come before it.

B2: Tk-SmsB (TK0730 protein) with a 6x His tag at its N-terminus (natural protein, Thermococcus kodakarensis, UniProt Q5JG67 1-446, looked up)
chain: MTETITMADAKAIIENQIEELARRNKEPEWMTKIRYKALEAFERAPHKDPVISEEQLLHFIAKPEVKGLPDHIESLDDLPPEMKALLDRLGISEVEQKYIAGLAVQTDTGVIYNQFLQDWAKKGLIVLPTEEAVRKYPDIVKQHFLKLFRADESKLTAYHTAVWNGGIFLYVKEGLKVPFPLHLFFLIQESALAQAPHIIIIAERNTEFHLIEGCTAPILLKHSLHLDMTEAYFHEGAKAQLTVLQNWPEYVHTRPMTRAKVGRGARFINTTVTLGSGKSNIGDPHYWVEEGGHVELNGIILGQKDFYVDLGGRMFLQGPGASGINASKAVIMDESTVVTRGIIEADAPKTKGHISCDALLMSDKAVMETYPGLISRVDDAELSHEAAIGKIREEELFYLMSRGLDEEKATQLIVKGFLDPMLKDIPMEFLVEIRKIIELAVSGGM
notes: SmsB (SufB homolog) of Thermococcus kodakarensis, locus TK0730; coding region amplified from genomic DNA of strain KU216; theoretical monomer mass 50.8 kDa including the His tag; Homodimer by gel filtration.); not shown: His6, N-terminal, kept

Key:
[1] = target: B2; experiment: SEC; Superdex 200 Increase 10/300 GL; 50 mM HEPES pH 7.5, 0.15 M NaCl; Tk-SmsB 40 uM alone, Tk-SmsC 72 uM alone, or mixture of 40 uM each; peak fraction analysed by SDS-PAGE and band densitometry; settings: both partners purified
[2] = target: B2; experiment: cell-based or functional assay
[3] = target: the molecule itself; experiment: SEC; Superdex 200 Increase 10/300 GL; 50 mM HEPES pH 7.5, 0.15 M NaCl; Tk-SmsB 40 uM alone, Tk-SmsC 72 uM alone, or mixture of 40 uM each; peak fraction analysed by SDS-PAGE and band densitometry
[4] = target: the molecule itself; experiment: SEC; gel filtration of Tk-CSD alone and of its mixtures with Tk-SmsB, Tk-SmsC or both, 30 uM of each protein; fractions analysed by SDS-PAGE

density ratio of the Tk-SmsB band to the Tk-SmsC band (SDS-PAGE of peak Pm) [1]: 1.13
stoichiometry N [1]: 1 Tk-SmsC per Tk-SmsB (printed as 2:2)
kcat/Km of ATP hydrolysis, Tk-SmsB2C2 (Tk-SmsC alone 4.4 × 10^2) [2]: 4600 M⁻¹ s⁻¹
B1: Tk-SmsC (TK0731 protein), recombinant (enzyme, Thermococcus kodakarensis, UniProt Q5JG66 1-246, looked up)
chain: MLKVENLHVSVEDKEILRGVDLEVNPGEFHVIMGPNGSGKSTLALTIAGHPKYRVTDGKILFEGEDITELGPDERAKRGILLAFQVPPEVEGVKVIEFLQQVLVELKGMDPAEAYDLVVEKAKELWFKEEDLHRYVNVGFSGGERKRLELLQALLIEPKLLILDEPDSGVDVDSLSIISRKIEELHQRGTAILLITHYGRILGHLDREKLTVHVMKDGRIVKTGSGELVDQIDREGFARIFEEVGA
notes: SmsC (SufC homolog, ABC-type ATPase) of Thermococcus kodakarensis, locus TK0731; coding region amplified from genomic DNA of strain KU216; theoretical mass 27.5 kDa; Cloned NdeI-BamHI into pET-21a(+); Monomer by gel filtration; source: E. coli BL21-CodonPlus(DE3)-RIL (pET0731), purified (heat treatment, anion exchange, gel filtration)

Binder: B2
stoichiometry N [3]: 2

B3: Tk-CSD (cysteine desulfurase of T. kodakarensis, TK1990 protein) (enzyme, Thermococcus kodakarensis, UniProt Q5JIJ0 1-399, looked up)
chain: MKIPDDIRKDIPLTSEVIYFDNTATSLTPKPVIEAMDEYYLKYRANVHRGVHRLSQIATHKYEESRKVVADFINAKFEEIVFTKNTSESLNLVALGLEHIFEKGDKIVTTPYEHHSDLLPWQRLAKKKGLRLEFIEGDLEGNLDLADAEKKIKGAKLVAVQHVSNALGVIHEVEELGKMAKEEGAIFVVDAAQSAGHMEVDVKKLYADFLGFSGHKGPMGPTGIGVLYINSEFFDVFEPPLIGGGTIEDVDLDSYKLAEPPERFEAGTPNIGGAIGLAAGIRYIERIGIEKIEKQEHKLVKRTTEGLDELEVPWYGPRNLKKHAGVVSFNVPPLHPHDVAAILDEHNIMVRSGHHCALPAMKKLGVEGTVRASFHVYNSVEEVETFLSVMENLIRGLRG
notes: cysteine desulfurase (SufS homolog) of Thermococcus kodakarensis, locus TK1990; coding region amplified from genomic DNA of strain KU216; theoretical monomer mass 44.4 kDa; Cloned NheI-EcoRI into pET-21a(+); Homodimer by gel filtration; source: E. coli BL21-CodonPlus(DE3)-RIL (pET1990), purified (heat treatment, anion exchange, gel filtration)
stoichiometry N [4]: 2
